According to patent US20170016905A1 (VAR2 PHARMACEUTICALS, published 2017):

B1: DBL1X-DBL2Xb (FCR3, E. coli, as the column stands) (other)
chain: HSDSGKYDPCEKKLPPYDDNDQWKCQQNSSDGSGKPENICVPPRRERLCTYNLENLKFDKIRDNNAFLADVLLTARNEGEKIVQNHPDTNSSNVCNALERSFADLADIIRGTDQWKGTNSNLEKNLKQMFAKIRENDKVLQDKYPKDQKYTKLREAWWNANRQKVWEVITCGARSNDLLIKRGWRTSGKSDRKKNFELCRKCGHYEKEVPTKLDYVPQFLRWLTEWIEDFYREKQNLIDDMERHREECTREDHKSKEGTSYCSTCKDKCKKYCECVKKWKTEWENQENKYKDLYEQNKNKTSQKNTSRYDDYVKDFFEKLEANYSSLENYIKGDPYFAEYATKLSFILNPSDANNPSGETANHNDEACNCNESGISSVGQAQTSGPSSNKTCITHSSIKTNKKKECKDVKLGVRENDKDLKICVIEDTSLSGVDNCCCQDLLGILQENCSDNKRGSSSNDSCDNKNQDECQKKLEKVFASLTNGYKCDKCKSGTSRSKKKWIWKKSSGNEEGLQEEYANTIGLPPRTQSLYLGNLPKLENVCEDVKDINFDTKEKFLAGCLIVSFHEGKNLKKRYPQNKNSGNKENLCKALEYSFADYGDLIKGTSIWDNEYTKDLELNLQNNFGKLFGKYIKKNNTAEQDTSYSSLDELRESWWNTNKKYIWTAMKHGAEMNITTCNADGSVTGSGSSCDDIPTIDLIPQYLRFLQEWVENFCEQRQAKVKDVITNCKSCKESGNKCKTECKTKCKDECEKYKKFIEACGTAGGGIGTAGSPWSKRWDQIYKRYSKHIEDAKRNRKAGTKNCGTSSTTNAAASTDENKCVQSDIDSFFKHLIDIGLTTPSSYLSNVLDDNICGADKAPWTTYTTYTTTEKCNKERDKSKSQSSDTLVVVNVPSPLGNTPYRYKY
notes: The value stands in column 4 (E. coli, under FCR3); The column may be shifted, in which case the protein could be the 3D7 baculovirus one; Range derived by me from the FCR3 primers (HSDSGK ... PYRYKY)
B2: DBL1-ID2a (3D7, Baculo) (other)
chain: HSDSGTNDPCDRIPPPYGDNDQWKCAIILSKVSEKPENVFVPPRRQRMCINNLEKLNVDKIRDKHAFLADVLLTARNEGERIVQNHPDTNSSNVCNALERSFADIADIIRGTDLWKGTNSNLEQNLKQMFAKIRENDKVLQDKYPKDQNYRKLREDWWNANRQKVWEVITCGARSNDLLIKRGWRTSGKSNGDNKLELCRKCGHYEEKVPTKLDYVPQFLRWLTEWIEDFYREKQNLIDDMERHREECTSEDHKSKEGTSYCSTCKDKCKKYCECVKKWKSEWENQKNKYTELYQQNKNETSQKNTSRYDDYVKDFFKKLEANYSSLENYIKGDPYFAEYATKLSFILNSSDANNPSEKIQKNNDEVCNCNESGIASVEQEQISDPSSNKTCITHSSIKANKKKVCKHVKLGVRENDKDLRVCVIEHTSLSGVENCCCQDFLRILQENCSDNKSGSSSNGSCNNKNQEACEKNLEKVLASLTNCYKCDKCKSEQSKKNNKNWIWKKSSGKEGGLQKEYANTIGLPPRTQSLCLVVCLDEKGKKTQELKNIRTNSELLKEWIIAAFHEGKNLKPSHEKKNDDNGKKLCKALEYSFADYGDLIKGTSIWDNEYTKDLELNLQKIFGKLFRKYIKKNNTAEQDTSYSSLDELRESWWNTNKKYIWLAMKHGAGMNSTTCCGDGSVTGSGSSCDDIPTIDLIPQYLRFLQEWVEHFCKQRQEKVKPVIENCKSCKESGGTCNGECKTECKNKCEVYKKFIEDCKGGDGTAGSSWVKRWDQIYKRYSKYIEDAKRNRKAGTKNCGPSSTTNAAENKCVQSDIDSFFKHLIDIGLTTPSSYLSIVLDDNICGADKAPWTTYTTYTTTEKCNKETDKSKLQQCNTAVVVNVPSPLGNTPHGYKYACQCKIPTNEETCDDRKEYMNQWSCGSARTMKRGYKNDNYELCKYNGVDVKPTTVRSNSSKLD
notes: also called DBL1X-ID2a; not shown: V5 and His tag at the C-terminal (modified pAcGP67-A)
B3: DBL1-ID2a (FCR3, Baculo) (other)
chain: HSDSGKYDPCEKKLPPYDDNDQWKCQQNSSDGSGKPENICVPPRRERLCTYNLENLKFDKIRDNNAFLADVLLTARNEGEKIVQNHPDTNSSNVCNALERSFADLADIIRGTDQWKGTNSNLEKNLKQMFAKIRENDKVLQDKYPKDQKYTKLREAWWNANRQKVWEVITCGARSNDLLIKRGWRTSGKSDRKKNFELCRKCGHYEKEVPTKLDYVPQFLRWLTEWIEDFYREKQNLIDDMERHREECTREDHKSKEGTSYCSTCKDKCKKYCECVKKWKTEWENQENKYKDLYEQNKNKTSQKNTSRYDDYVKDFFEKLEANYSSLENYIKGDPYFAEYATKLSFILNPSDANNPSGETANHNDEACNCNESGISSVGQAQTSGPSSNKTCITHSSIKTNKKKECKDVKLGVRENDKDLKICVIEDTSLSGVDNCCCQDLLGILQENCSDNKRGSSSNDSCDNKNQDECQKKLEKVFASLTNGYKCDKCKSGTSRSKKKWIWKKSSGNEEGLQEEYANTIGLPPRTQSLYLGNLPKLENVCEDVKDINFDTKEKFLAGCLIVSFHEGKNLKKRYPQNKNSGNKENLCKALEYSFADYGDLIKGTSIWDNEYTKDLELNLQNNFGKLFGKYIKKNNTAEQDTSYSSLDELRESWWNTNKKYIWTAMKHGAEMNITTCNADGSVTGSGSSCDDIPTIDLIPQYLRFLQEWVENFCEQRQAKVKDVITNCKSCKESGNKCKTECKTKCKDECEKYKKFIEACGTAGGGIGTAGSPWSKRWDQIYKRYSKHIEDAKRNRKAGTKNCGTSSTTNAAASTDENKCVQSDIDSFFKHLIDIGLTTPSSYLSNVLDDNICGADKAPWTTYTTYTTTEKCNKERDKSKSQSSDTLVVVNVPSPLGNTPYRYKYACQCKIPTNEETCDDRKEYMNQWSCGSARTMKRGYKNDNYELCKYNGVDVKPTTVRSNSSKLD
notes: also called DBL1X-ID2a; wild-type protein; not shown: V5 and His tag at the C-terminal (modified pAcGP67-A)
B4: DBL1-ID2a (FCR3, E. coli) (other)
chain: B3 chain
notes: Made in E. coli
B5: ID1-ID2a (FCR3, Baculo) (other)
chain: NYIKGDPYFAEYATKLSFILNPSDANNPSGETANHNDEACNCNESGISSVGQAQTSGPSSNKTCITHSSIKTNKKKECKDVKLGVRENDKDLKICVIEDTSLSGVDNCCCQDLLGILQENCSDNKRGSSSNDSCDNKNQDECQKKLEKVFASLTNGYKCDKCKSGTSRSKKKWIWKKSSGNEEGLQEEYANTIGLPPRTQSLYLGNLPKLENVCEDVKDINFDTKEKFLAGCLIVSFHEGKNLKKRYPQNKNSGNKENLCKALEYSFADYGDLIKGTSIWDNEYTKDLELNLQNNFGKLFGKYIKKNNTAEQDTSYSSLDELRESWWNTNKKYIWTAMKHGAEMNITTCNADGSVTGSGSSCDDIPTIDLIPQYLRFLQEWVENFCEQRQAKVKDVITNCKSCKESGNKCKTECKTKCKDECEKYKKFIEACGTAGGGIGTAGSPWSKRWDQIYKRYSKHIEDAKRNRKAGTKNCGTSSTTNAAASTDENKCVQSDIDSFFKHLIDIGLTTPSSYLSNVLDDNICGADKAPWTTYTTYTTTEKCNKERDKSKSQSSDTLVVVNVPSPLGNTPYRYKYACQCKIPTNEETCDDRKEYMNQWSCGSARTMKRGYKNDNYELCKYNGVDVKPTTVRSNSSKLD
notes: The primers (NYIKGD ... NSSKLD) match its two ends; not shown: V5 and His tag at the C-terminal (modified pAcGP67-A)
B6: ID1-ID2a (FCR3, E. coli) (other)
chain: B5 chain
notes: Made in E. coli
B7: ID1-ID2a (3D7, Baculo) (other)
chain: LSFILNSSDANNPSEKIQKNNDEVCNCNESGIASVEQEQISDPSSNKTCITHSSIKANKKKVCKHVKLGVRENDKDLRVCVIEHTSLSGVENCCCQDFLRILQENCSDNKSGSSSNGSCNNKNQEACEKNLEKVLASLTNCYKCDKCKSEQSKKNNKNWIWKKSSGKEGGLQKEYANTIGLPPRTQSLCLVVCLDEKGKKTQELKNIRTNSELLKEWIIAAFHEGKNLKPSHEKKNDDNGKKLCKALEYSFADYGDLIKGTSIWDNEYTKDLELNLQKIFGKLFRKYIKKNNTAEQDTSYSSLDELRESWWNTNKKYIWLAMKHGAGMNSTTCCGDGSVTGSGSSCDDIPTIDLIPQYLRFLQEWVEHFCKQRQEKVKPVIENCKSCKESGGTCNGECKTECKNKCEVYKKFIEDCKGGDGTAGSSWVKRWDQIYKRYSKYIEDAKRNRKAGTKNCGPSSTTNAAENKCVQSDIDSFFKHLIDIGLTTPSSYLSIVLDDNICGADKAPWTTYTTYTTTEKCNKETDKSKLQQCNTAVVVNVPSPLGNTPHGYKYACQCKIPTNEETCDDRKEYMNQWSCGSARTMKRGYKNDNYELCKYNGVDVKPTTVRSNSSKLD
notes: not shown: V5 and His tag at the C-terminal (modified pAcGP67-A)

What follows are binders tested against T1, CSPG (bovine) (D8428, Sigma) (bovine, UniProt P21793 31-360, carries chondroitin sulfate A (CSA) glycosaminoglycan chain(s); the filing attributes the binding of VAR2CSA to this glycan) (assay: quartz crystal microbalance (Attana A100), CSPG coated, 1:1 fit).
T1 construct: also called chondroitin sulfate proteoglycan; CSA proteoglycan
T1 sequence (P21793 31-360): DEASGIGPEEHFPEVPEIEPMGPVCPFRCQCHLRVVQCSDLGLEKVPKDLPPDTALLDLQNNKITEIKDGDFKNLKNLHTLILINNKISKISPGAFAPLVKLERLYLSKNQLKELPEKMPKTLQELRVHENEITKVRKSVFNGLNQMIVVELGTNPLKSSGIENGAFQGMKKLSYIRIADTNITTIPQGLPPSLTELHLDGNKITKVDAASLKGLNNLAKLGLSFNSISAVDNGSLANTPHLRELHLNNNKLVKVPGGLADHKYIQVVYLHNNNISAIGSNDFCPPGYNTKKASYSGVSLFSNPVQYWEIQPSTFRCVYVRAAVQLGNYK

Binder	Kd
B1	14.6 nM
B2	29.5 nM
B3	8 nM
B4	3.5 nM
B5	7.6 nM
B6	18.3 nM
B7	5.7 nM
